The numbers were not newly measured in paper PMC8508339, which cites them from elsewhere.

For orientation: Kd means the free concentration of one partner at which half of the binding sites on the other are occupied at equilibrium, for simple one-to-one binding.

Data set [1] addresses cholecystokinin (Homo sapiens) (UniProt P06307).
In another data set the target is gastrin (Homo sapiens) (UniProt P01350).
Chain of UniProt P01350 (P01350 whole entry, looked up): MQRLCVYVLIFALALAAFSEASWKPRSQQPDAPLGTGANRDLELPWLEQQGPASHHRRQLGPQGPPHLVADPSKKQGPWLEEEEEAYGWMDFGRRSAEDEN

Chain of UniProt P06307 (P06307 whole entry, looked up): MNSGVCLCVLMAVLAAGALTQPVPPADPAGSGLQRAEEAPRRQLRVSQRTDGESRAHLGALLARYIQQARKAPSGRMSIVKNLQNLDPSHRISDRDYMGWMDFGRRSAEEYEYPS

With “CCK-B receptor (CCK2) (from UniProt P32239)”, the Kd (in data set [1]; with gastrin (Homo sapiens)) was 1 nM each time.
